According to patent US12692303 (QYUNS THERAPEUTICS, dated 2026):
Numbering of substitutions follows the chain as printed. Values belong to the binder of their own block, whether it stands above or below them.

Key:
IL-23 mutant F144S [1] = molecular target: T1, IL-23 mutant F144S (human, UniProt Q9NPF7 20-189; P29460 23-328); assay: binding ELISA, antibody coated at 1 µg/ml, IL-23 mutant supernatant titrated, anti-His detection
T1 construct: 293F cell supernatant
T1 chain 1: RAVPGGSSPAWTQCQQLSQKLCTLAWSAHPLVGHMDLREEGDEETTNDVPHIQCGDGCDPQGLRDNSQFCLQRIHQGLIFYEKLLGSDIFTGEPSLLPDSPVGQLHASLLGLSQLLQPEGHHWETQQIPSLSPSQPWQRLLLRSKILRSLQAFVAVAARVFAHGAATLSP
T1 chain 2: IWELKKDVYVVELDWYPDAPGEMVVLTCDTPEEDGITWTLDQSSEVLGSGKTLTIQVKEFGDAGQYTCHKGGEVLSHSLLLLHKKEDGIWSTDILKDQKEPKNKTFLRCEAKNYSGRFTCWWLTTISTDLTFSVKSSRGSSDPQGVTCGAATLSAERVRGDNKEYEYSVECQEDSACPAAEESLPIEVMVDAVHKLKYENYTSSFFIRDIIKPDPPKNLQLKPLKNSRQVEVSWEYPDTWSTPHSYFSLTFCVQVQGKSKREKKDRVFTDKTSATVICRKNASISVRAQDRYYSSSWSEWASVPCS
Description: (§1) Mutation primers were designed through PCR method. The p19 mutant plasmid was co-transfected with p40 plasmid into 293F cells to prepare a cell supernatant containing the IL-23 mutant.
(§2) After blocking, a series of cell supernatant dilutions of IL-23 mutant diluted to a concentration ranging from 0 to 0.5 μg/ml for incubation. Then, Biotin labeled anti-His antibody and SA-HRP were added respectively for incubation, finally the substrate was added for color development, and the termination solution was added to terminate the color reaction. After termination, the ELISA plate was placed in a microplate reader to read the absorption value at 450 nm (the absorption values at 650 nm was taken as reference), and the dose effect curve was plotted and the $EC50$ value was calculated.

IL-23 mutant W137D = molecular target: T2, IL-23 mutant W137D (human, UniProt Q9NPF7 20-189; P29460 23-328); assay: as above
T2 construct: 293F cell supernatant
T2 chain 1: T1 chain 1 with W137D, S144F
T2 chain 2: T1 chain 2
Description: as §1, §2

IL-23 mutant W137A = molecular target: T3, IL-23 mutant W137A (human, UniProt Q9NPF7 20-189; P29460 23-328); assay: as above
T3 construct: p19 mutant plasmid co-transfected with p40 plasmid into 293F cells; used as cell supernatant
T3 chain 1: T1 chain 1 with W137A, S144F
T3 chain 2: T1 chain 2
Description: as §1, §2

IL-23 mutant R143A = molecular target: T4, IL-23 mutant R143A (human, UniProt Q9NPF7 20-189; P29460 23-328); assay: as above
T4 construct: 293F cell supernatant
T4 chain 1: T1 chain 1 with R143A, S144F
T4 chain 2: T1 chain 2
Description: as §1, §2

IL-23 mutant L140P [2] = molecular target: T5, IL-23 mutant L140P (human, UniProt Q9NPF7 20-189; P29460 23-328); assay: as above
T5 construct: 293F cell supernatant
T5 chain 1: T1 chain 1 with L140P, S144F
T5 chain 2: T1 chain 2
Description: as §1, §2

IL-23 mutant F144S [3] = molecular target: T1, IL-23 mutant F144S; assay: binding ELISA, antibody coated at 1 µg/ml, IL-23 mutant supernatant titrated; N.D: the binding is weak, and the EC50 value is not accurate
Description: as §1, §2

IL-23 mutant L140P [4] = molecular target: T5, IL-23 mutant L140P; assay: as above
Description: as §1, §2

[5] = molecular target: T6, Human interleukin 23 (hIL-23) (human, UniProt Q9NPF7 20-189; P29460 23-328); assay: cell-based or functional assay
T6 sequence 1: T1 chain 1 with S144F
T6 sequence 2: T1 chain 2

IL-23-p40 = molecular target: T7, IL-23-p40 (human, UniProt P29460 23-328); assay: Binding ELISA: IL-23-p40 coated at 2 ug/ml, goat anti-human IgG secondary antibody, OD450 (reference 650 nm)
T7 construct: also called p40 subunit of IL-23; IL-12/IL-23p40
T7 sequence: T1 chain 2
Description: IL-23-p40 was diluted to 2 μg/ml, added to the ELISA plate, and coated overnight at 4° C. After blocking, a series of antibody dilutions diluted to a concentration ranging from 0 to 5 μg/ml and Goat-anti-human IgG secondary antibody were added respectively for incubation, finally substrate was added for color development, and the termination solution was added to terminate the color reaction. After termination, the ELISA plate was placed in a microplate reader to read the absorption value at 450 nm (the absorption value at 650 nm was taken as reference), and the dose effect curve was plotted to analyze the binding specificity of the antibody.

[6] = molecular target: T6, Human interleukin 23 (hIL-23); assay: SPR, Biacore T200, antibody captured on Protein A chip, IL-23 in flow, 25 °C, 1:1 model
Description: Commercialized Protein A chip was used to immobilize an appropriate amount of antibody by capture method, the Rmax was about 50 RU and the capture flow rate was 10 μl/min. The antigen was diluted by gradient, and the flow rate of the instrument was switched to 30 μl/min. The diluted antigen flowed through the reference channel and the channel of immobilized antibody in sequence from low to high concentration, and flowed through the buffer as negative control. The chip was regenerated with glycine at pH 1.5 after each binding and dissociation. Fitting was performed with the 1:1 binding model in the Kinetics option using the build-in software in the instrument, and the association rate constant k_a, dissociation rate constant […] and equilibrium dissociation constant K_D of the antibody were calculated.

Natural IL-23 = molecular target: T8, Natural IL-23 (human, UniProt Q9NPF7 20-189; P29460 23-328); assay: binding ELISA, antibody coated at 1 µg/ml, IL-23 titrated, anti-His detection
T8 construct: It was detected with an anti-His antibody, so it carries a His tag
T8 sequence 1: T1 chain 1 with S144F
T8 sequence 2: T1 chain 2

EC50 (IL-23 mutant F144S [1]): 0.0101 µg/mL
EC50 (IL-23 mutant W137D): 0.0052 µg/mL
EC50 (IL-23 mutant W137A): 0.0023 µg/mL
EC50 (IL-23 mutant R143A): 0.307 µg/mL
EC50 (IL-23 mutant L140P [2]): 0.0544 µg/mL
B1: Risankizumab (antibody, V domains shown)
VH: QVQLVQSGAEVKKPGSSVKVSCKASGYTFTDQTIHWMRQAPGQGLEWIGYIYPRDDSPKYNENFKGKVTITADKSTSTAYMELSSLRSEDTAVYYCAIPDRSGYAWFIYWGQGTLVTVSS
VL: DIQMTQSPSSLSASVGDRVTITCKASRDVAIAVAWYQQKPGKVPKLLIYWASTRHTGVPSRFSGSGSRTDFTLTISSLQPEDVADYFCHQYSSYPFTFGSGTKLEIKR

binding result (IL-23 mutant F144S [3]): binds
binding result (IL-23 mutant L140P [4]): binds
IC50, inhibition of phosphorylation of STAT3 in HEK Blue IL-23 cells induced by IL-23 [5]: 0.00321 µg/mL
IC50, inhibition of release of IFN-γ from human NK cells induced by IL-23 [5]: 0.0104 µg/mL
IC50, inhibition of release of IL-17A from mouse spleen cells induced by IL-23 [5]: 0.0117 µg/mL
binding result (IL-23-p40): no binding
EC50 (IL-23 mutant W137D): 0.363 µg/mL
EC50 (IL-23 mutant W137A): 0.0501 µg/mL
EC50 (IL-23 mutant R143A): 0.0034 µg/mL
Kd [6]: 0.101 nM
koff [6]: 3.5e-05 s⁻¹
kon [6]: 366000 M⁻¹ s⁻¹
EC50 (Natural IL-23): 0.0017 µg/mL
B2: QX004N (HZD90-32) (antibody, human IgG1, kappa, V domains shown)
VH: EVQLVESGGGLVQPGGSLRLSCAASGFSLSNHEMSWVRQAPGKGLEWIGIITTSDTTYYATWAKGRFTISRDNSKNTLYLQMNSLRAEDTAVYYCARVDIVLLSVTSRIWGQGTLVTVSS
VL: DVVMTQSPSSLSASVGDRVTITCQASQSVSTYLSWYQQKPGKAPKLLIYGASNLESGVPSRFSGSGSGTDFTLTISSLQPEDFATYYCQSGYVFAGLTFGGGTKVEIKR
notes: Expressed in ExpiCHO-S cells, purified on Protein A; also called humanized clone 90#; 90VH-Hu18/90VK-Hu9
